# From publication PMC6220978, “Induced conformational changes activate the peptidoglycan synthase PBP1B” (Molecular Microbiology, 2018)
# Changes are numbered by the printed parent chain.
# B1: LpoB (natural protein, E. coli)
# chain: VGQREPAPVEEVKPAPEQPAEPQQPVPTVPSVPTIPQQPGPIEHEDQTAPPAPHIRHYDWNGAMQPMVSKMLGADGVTAGSVLLVDSVNNRTNGSLNAAEATETLRNALANNGKFTLVSAQQLSMAKQQLGLSPQDSLGTRSKAIGIARNVGAHYVLYSSASGNVNAPTLQMQLMLVQTGEIIWSGKGAVSQQ
# notes: LpoB, E. coli; also called lipoprotein LpoB; source: E. coli BL21(DE3), purified (HisTrap, Superdex 200), as in Egan et al. 2014
# Tests used:
# Test in all cases: SPR; reducing conditions: 2 mM TCEP in the SPR running buffer, immobilised PBP1B versions incubated in it for 30 min before the assay; LpoB injected from 19.5 nM to 10 μM; apparent KD
# Details in all cases: both partners purified
# PBP1B R157A = target: T1, PBP1B R157A (E. coli, UniProt P02919 46-844, R157A)
# T1 construct: PBP1B, E. coli, residues 46-844, made by mutagenesis of pDML924; source: E. coli BL21(DE3), purified (membrane extract, HisTrap, thrombin, HiTrap SP ion exchange)
# T1 sequence (looked up): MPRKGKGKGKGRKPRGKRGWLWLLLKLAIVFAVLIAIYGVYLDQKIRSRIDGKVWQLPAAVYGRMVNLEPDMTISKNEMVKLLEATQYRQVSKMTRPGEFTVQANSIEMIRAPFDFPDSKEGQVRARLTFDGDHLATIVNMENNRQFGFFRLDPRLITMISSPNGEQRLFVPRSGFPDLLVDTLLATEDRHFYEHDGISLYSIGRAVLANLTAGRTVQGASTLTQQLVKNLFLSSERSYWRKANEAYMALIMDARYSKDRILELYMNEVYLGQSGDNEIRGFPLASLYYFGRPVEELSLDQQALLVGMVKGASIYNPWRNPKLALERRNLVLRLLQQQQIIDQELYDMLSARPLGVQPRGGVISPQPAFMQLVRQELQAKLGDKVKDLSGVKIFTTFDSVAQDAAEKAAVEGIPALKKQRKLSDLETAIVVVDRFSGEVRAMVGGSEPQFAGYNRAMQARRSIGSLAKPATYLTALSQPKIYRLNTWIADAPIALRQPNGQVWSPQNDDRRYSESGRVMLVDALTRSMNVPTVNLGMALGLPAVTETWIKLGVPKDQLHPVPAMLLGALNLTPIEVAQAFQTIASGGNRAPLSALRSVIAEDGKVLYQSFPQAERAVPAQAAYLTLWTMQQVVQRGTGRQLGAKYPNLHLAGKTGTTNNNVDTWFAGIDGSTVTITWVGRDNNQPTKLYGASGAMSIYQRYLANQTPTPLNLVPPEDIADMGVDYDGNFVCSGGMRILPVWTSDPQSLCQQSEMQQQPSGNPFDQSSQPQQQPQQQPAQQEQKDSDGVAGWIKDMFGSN
# PBP1B D160C/K437C = target: T2, PBP1B D160C/K437C (E. coli, UniProt P02919 46-844, D160C | K437C)
# T2 construct: PBP1B, E. coli, residues 46-844, made by mutagenesis of pDML924; Disulphide bridge between C160 and C437 (no free thiol groups detected); reduced in the SPR assay with 2 mM TCEP; source: E. coli BL21(DE3), purified (membrane extract, HisTrap, thrombin, HiTrap SP ion exchange)
# T2 sequence (looked up): T1 sequence (looked up) with A112R, D115C, K392C
# PBP1B^Δ158–160 = target: T3, PBP1B^Δ158–160 (E. coli, UniProt P02919 46-844, Δ158–160)
# T3 construct: PBP1B, E. coli, residues 46-844 with residues 158-160 of Loop 1 removed, made by mutagenesis of pDML924; also called Loop 1 truncation; source: E. coli BL21(DE3), purified (membrane extract, HisTrap, thrombin, HiTrap SP ion exchange)
# T3 sequence (looked up): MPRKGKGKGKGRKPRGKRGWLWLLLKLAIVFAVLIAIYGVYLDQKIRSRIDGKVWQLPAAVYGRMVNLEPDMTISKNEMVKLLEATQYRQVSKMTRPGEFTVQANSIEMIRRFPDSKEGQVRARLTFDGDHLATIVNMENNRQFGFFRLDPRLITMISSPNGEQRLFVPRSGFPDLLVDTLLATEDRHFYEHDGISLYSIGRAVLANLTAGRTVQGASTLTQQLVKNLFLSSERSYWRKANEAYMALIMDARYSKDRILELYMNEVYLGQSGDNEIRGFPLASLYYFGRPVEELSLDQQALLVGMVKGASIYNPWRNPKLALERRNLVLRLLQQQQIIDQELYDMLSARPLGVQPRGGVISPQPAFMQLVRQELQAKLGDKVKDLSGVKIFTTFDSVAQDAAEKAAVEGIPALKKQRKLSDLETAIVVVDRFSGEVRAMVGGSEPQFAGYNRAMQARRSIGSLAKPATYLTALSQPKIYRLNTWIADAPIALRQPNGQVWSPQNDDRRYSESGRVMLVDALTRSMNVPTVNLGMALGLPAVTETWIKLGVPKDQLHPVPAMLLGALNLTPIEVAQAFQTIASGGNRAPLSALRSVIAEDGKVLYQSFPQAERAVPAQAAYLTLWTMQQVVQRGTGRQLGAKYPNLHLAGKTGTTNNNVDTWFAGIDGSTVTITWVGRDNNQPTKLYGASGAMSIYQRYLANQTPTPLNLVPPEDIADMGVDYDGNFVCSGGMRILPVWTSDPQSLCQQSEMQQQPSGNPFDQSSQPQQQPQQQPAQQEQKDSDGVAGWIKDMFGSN
binder,measurement,setting,value
B1,Kd,PBP1B R157A,357 nM
same,Kd,PBP1B D160C/K437C,2040 nM
same,Kd,PBP1B^Δ158–160,1700 nM
